Residue numbers refer to the chain shown, from its start.
B1: Chi-46 (antibody, V domains shown)
VH: DVKLVESGGGLVKLGGSLKLSCAASGFTFSSYHMSWVRQTPEKRLELVAAINSNVISTYYLDTVKGRFTISRDNAKNTLYLQMSSLKSEDTALYYCARHEDYYGFAMDYWGQGTSVTVSS
VL: SIVMTQTPKFLLVSAGDRVTITCKASQSVSNDVAWYQQKPGQSPKLLMYYVSNRFTGVPDRFTGSGYGTDFTFTINTVQAEDLAVYFCQQAYRSPWTFGGGTKLEIK
notes: chimeric
B2: Chi-61 (antibody, V domains shown)
VH: DVKLVESGGGLVKLGGSLKLSCAASGFTFSSYHMSWVRQTPEKRLELVAAISRDGDSTYYPDTVKGRFTISRDDAENTLYLQMSSLKSEDTALYYCSRHEDYFGFAMDSWGQGTSVTVSS
VL: B1 VL with Q38E, N53H, Q89H
notes: chimeric
B3: Chi-53 (antibody, V domains shown)
VH: B1 VH with V37I, V55G, S57N
VL: B1 VL with Q38E, N53H, Q89H
notes: chimeric
B4: Chi-69 (antibody, V domains shown)
VH: B1 VH with K3Q, A23V, V37I, V55D, S57N, N74I, Y80H
VL: B1 VL with Q38E, N53H, Q89H
notes: chimeric
B5: Chi-70 (antibody, V domains shown)
VH: B1 VH with K3Q, A23V, V37I, V55D, S57N, N74I, Y80H
VL: B1 VL
notes: chimeric
B6: Chi-55 (antibody, V domains shown)
VH: B1 VH with V37I, V55G, S57N
VL: B1 VL with S30T, R54H, F55Y, T63I, N76S
notes: chimeric
B7: Chi-62 (antibody, V domains shown)
VH: B2 VH
VL: B1 VL
notes: chimeric
B8: Chi-47 (antibody, V domains shown)
VH: B1 VH
VL: B1 VL with S30T, R54H, F55Y, T63I, N76S
notes: chimeric
B9: Chi-71 (antibody, V domains shown)
VH: B1 VH with K3Q, A23V, V37I, V55D, S57N, N74I, Y80H
VL: B1 VL with S30T, R54H, F55Y, T63I, N76S
notes: chimeric

Target: T1, human CD112R on Jurkat CD112R effector cells (human, UniProt Q6DKI7 1-326)
T1 sequence (looked up): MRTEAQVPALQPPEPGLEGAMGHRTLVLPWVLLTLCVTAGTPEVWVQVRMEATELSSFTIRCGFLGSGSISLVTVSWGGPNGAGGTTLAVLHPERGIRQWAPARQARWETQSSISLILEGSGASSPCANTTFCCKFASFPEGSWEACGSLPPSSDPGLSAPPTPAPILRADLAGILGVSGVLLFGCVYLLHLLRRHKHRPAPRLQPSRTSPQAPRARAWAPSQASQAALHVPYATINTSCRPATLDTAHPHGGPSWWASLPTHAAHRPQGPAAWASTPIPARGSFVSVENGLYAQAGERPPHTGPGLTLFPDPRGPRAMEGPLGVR
Assay: cell-based or functional assay

Binder	EC50, CD112R/CD112 reporter [µg/mL]	Relative activity (%), EC50 Ref/EC50 antibody [%]
B1	0.00701	4610
B2	0.019	1590
B3	0.0129	2430
B4	0.0187	1390
B5	0.0139	1870
B6	0.0131	2310
B7	0.0129	2350
B8	0.014	2230
B9	0.0194	1470

Target: T2, human CD112R on CHO-CD112R cells (human, UniProt Q6DKI7 41-326)
T2 construct: whole, on cells; also called hCD112R; PVRIG
T2 sequence (looked up): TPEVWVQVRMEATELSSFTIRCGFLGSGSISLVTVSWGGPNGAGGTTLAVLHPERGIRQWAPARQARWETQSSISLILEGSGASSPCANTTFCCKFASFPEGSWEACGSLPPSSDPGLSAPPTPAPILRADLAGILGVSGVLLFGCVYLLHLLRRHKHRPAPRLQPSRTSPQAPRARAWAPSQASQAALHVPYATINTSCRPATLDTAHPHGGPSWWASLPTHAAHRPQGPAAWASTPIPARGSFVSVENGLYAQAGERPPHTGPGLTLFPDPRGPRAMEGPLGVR
Assay: FACS on CHO-CD112R cells
Description: (§1) CHO-CD112R cells (constructed in-house by Junshi, the amino acid sequence of CD112R in the construction of stable cell lines overexpressing CD112R comprises amino acids at positions Met1-Arg326 under NCBI accession No. Q6DKI7) overexpressing human CD112R were incubated with each of the chimeric anti-CD112R antibodies at different concentrations (initial concentration: 50 μg/mL, 5-fold dilution, 12 concentration gradients in total) at 4° C. for 30 min, and then washed and incubated with a fluorescence-labeled secondary antibody at 4° C. for 30 min in the dark. Finally, the cells were collected by using a flow cytometer (BD Canto II), and the fluorescent antibodies bound to the cell surface were detected. Raw data were analyzed by using FlowJo to obtain MFI values, the antibody dose-dependent binding curves were fitted by using GraphPad (FIG. 3, a and b) and EC₅₀ was calculated (Table 3). The positive control and the negative control were Ref (anti-CD112R antibody, University of Colorado, obtained by expression and purification according to the sequences in US20170240613) and anti-KLH hu-IgG4 antibody, respectively.

Binder	EC50 [µg/mL]
B1	0.433
B2	0.107
B3	0.627
B4	0.262
B5	0.26
B6	0.14
B7	0.214
B8	0.28
B9	0.205

Target: T3, recombinant cynomolgus monkey CD112R antigen (cynomolgus monkey, UniProt A0A2K5WVV8 1-322)
T3 construct: bought
T3 sequence: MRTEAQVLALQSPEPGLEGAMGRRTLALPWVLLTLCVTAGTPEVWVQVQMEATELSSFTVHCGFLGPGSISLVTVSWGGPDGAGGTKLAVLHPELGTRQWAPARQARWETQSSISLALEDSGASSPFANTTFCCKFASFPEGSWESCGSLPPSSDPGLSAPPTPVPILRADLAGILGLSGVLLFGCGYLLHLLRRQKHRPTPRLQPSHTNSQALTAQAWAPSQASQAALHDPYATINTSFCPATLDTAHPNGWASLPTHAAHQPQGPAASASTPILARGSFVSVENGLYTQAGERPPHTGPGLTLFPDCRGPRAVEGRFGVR
Assay: ELISA, coated cynomolgus monkey CD112R
Description: (§2) A plate was coated with a recombinant cynomolgus monkey CD112R antigen (Acrobiosystems, Cat No. PVG-C5259) at a fixed concentration, and the chimeric anti-CD112R antibodies diluted in a gradient (initial concentration: 1 μg/mL, 2.5-fold gradient dilution, 12 concentration gradients in total) were added to bind to the antigen. Horseradish peroxidase (HRP)-conjugated mouse anti-human IgG4 Fc (Southern Biotech, 9200-05) was subjected to a 5000-fold dilution and used as a detection antibody for detection. The color development was performed with 0.1 mg/mL TMB, and finally stopped with 2 M hydrochloric acid. The plate was read at 420 nm/620 nm. EC₅₀ was obtained by fitting with a four-parameter logistic regression (4PL) model.

Binder	EC50 [µg/mL]
B1	0.00326
B2	0.005
B3	0.0033
B4	0.00474
B5	0.00383
B6	0.00419
B7	0.00371
B8	0.00309
B9	0.00442

Target: T2, human CD112R on CHO-CD112R cells
Assay: FACS on CHO-CD112R cells; EC50 Ref/EC50 antibody
Description: as §1

Binder	Relative activity (%)
B1	388
B2	3990
B3	268
B4	1630
B5	1640
B6	3050
B7	2000
B8	600
B9	2090

Target: T4, hCD112R mFC recombinant protein (human; murine, UniProt Q6DKI7 41-160)
T4 construct: range 41-160; expressed in 293E cells; also called hCD112R ECD mFC; hCD112R-ECD-mFC; not shown: murine IgG2a Fc domain (MX2-mFc vector)
T4 sequence (looked up): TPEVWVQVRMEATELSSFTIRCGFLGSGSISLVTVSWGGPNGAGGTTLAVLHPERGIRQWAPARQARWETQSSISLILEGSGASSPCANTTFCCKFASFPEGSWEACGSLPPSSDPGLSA
Assay: FACS competition, hCD112R mFc on CHO CD112 cells
Description: (§3) Cells CHO CD112 overexpressing human CD112 were co-incubated with a hCD112R mFc protein solution (5 μg/mL) prepared in a staining buffer (PBS+1% FBS), and the chimeric anti-CD112R antibodies or the control antibodies at different concentrations (initial concentration: 100 μg/mL, 3-fold dilution, 10 concentration gradients) at 4° C. for 30 min. Unbound antibodies were then washed with a staining buffer and the cells were incubated with 1% (v/v) goat anti-mouse IgG Fc fluorescent secondary antibodies (Jackson ImmunoResearch) prepared in a staining buffer at 4° C. for 30 min in the dark. Finally, the cells were collected by using a flow cytometer (BD Canto II), and the fluorescent antibodies bound to the cell surface were detected. Raw data were analyzed by using FlowJo to obtain MFI values, and a four-parameter curve fitting was performed by using GraphPad Prism software to obtain IC₅₀ values. The positive control and the negative control were Ref (anti-CD112R antibody, University of Colorado, obtained by expression and purification according to the sequences in US20170240613) and the anti-KLH hu-IgG4 antibody, respectively.
As shown in FIG. 5 (a and b) and Table 8, the following 13 chimeric antibodies were all capable of effectively blocking the binding of the CD112R protein to CHO-CD112 cells.

Binder	IC50 [µg/mL]
B1	0.8
B2	0.965
B3	0.979
B4	0.959
B5	0.708
B6	1.02
B7	0.964
B8	0.876
B9	0.733

Target: T3, recombinant cynomolgus monkey CD112R …
Assay: ELISA, coated cynomolgus monkey CD112R; EC50 Ref/EC50 antibody
Description: as §2

Binder	Relative activity (%)
B1	107
B2	83.8
B3	106
B4	88.4
B5	109
B6	100
B7	113
B8	113
B9	94.8

Target: T4, hCD112R mFC recombinant protein
Assay: FACS competition, hCD112R mFc on CHO CD112 cells; ratio Ref/antibody
Description: as §3

Binder	Relative activity (%)
B1	132
B2	110
B3	108
B4	110
B5	150
B6	104
B7	110
B8	121
B9	144

Target: T4, hCD112R mFC recombinant protein
Assay: FACS blocking: hCD112R mFc (5 µg/mL) binding to human CD112 on CHO CD112 cells, MFI-APC; unit from the axis (µg/mL), Table 8 says ng/ml
Description: as §3

Binder	IC50 [µg/mL]
B1	0.8
B2	0.965
B3	0.979
B4	0.959
B5	0.708
B6	1.02
B7	0.964
B8	0.876
B9	0.733
